The values that follow are results of earlier work, collected in paper PMC5356237.

pKd: −log10 of the molar value.

This data set has as its target HER3 (Homo sapiens) (UniProt P21860).
UniProt P21860, sequence (P21860 20-1342): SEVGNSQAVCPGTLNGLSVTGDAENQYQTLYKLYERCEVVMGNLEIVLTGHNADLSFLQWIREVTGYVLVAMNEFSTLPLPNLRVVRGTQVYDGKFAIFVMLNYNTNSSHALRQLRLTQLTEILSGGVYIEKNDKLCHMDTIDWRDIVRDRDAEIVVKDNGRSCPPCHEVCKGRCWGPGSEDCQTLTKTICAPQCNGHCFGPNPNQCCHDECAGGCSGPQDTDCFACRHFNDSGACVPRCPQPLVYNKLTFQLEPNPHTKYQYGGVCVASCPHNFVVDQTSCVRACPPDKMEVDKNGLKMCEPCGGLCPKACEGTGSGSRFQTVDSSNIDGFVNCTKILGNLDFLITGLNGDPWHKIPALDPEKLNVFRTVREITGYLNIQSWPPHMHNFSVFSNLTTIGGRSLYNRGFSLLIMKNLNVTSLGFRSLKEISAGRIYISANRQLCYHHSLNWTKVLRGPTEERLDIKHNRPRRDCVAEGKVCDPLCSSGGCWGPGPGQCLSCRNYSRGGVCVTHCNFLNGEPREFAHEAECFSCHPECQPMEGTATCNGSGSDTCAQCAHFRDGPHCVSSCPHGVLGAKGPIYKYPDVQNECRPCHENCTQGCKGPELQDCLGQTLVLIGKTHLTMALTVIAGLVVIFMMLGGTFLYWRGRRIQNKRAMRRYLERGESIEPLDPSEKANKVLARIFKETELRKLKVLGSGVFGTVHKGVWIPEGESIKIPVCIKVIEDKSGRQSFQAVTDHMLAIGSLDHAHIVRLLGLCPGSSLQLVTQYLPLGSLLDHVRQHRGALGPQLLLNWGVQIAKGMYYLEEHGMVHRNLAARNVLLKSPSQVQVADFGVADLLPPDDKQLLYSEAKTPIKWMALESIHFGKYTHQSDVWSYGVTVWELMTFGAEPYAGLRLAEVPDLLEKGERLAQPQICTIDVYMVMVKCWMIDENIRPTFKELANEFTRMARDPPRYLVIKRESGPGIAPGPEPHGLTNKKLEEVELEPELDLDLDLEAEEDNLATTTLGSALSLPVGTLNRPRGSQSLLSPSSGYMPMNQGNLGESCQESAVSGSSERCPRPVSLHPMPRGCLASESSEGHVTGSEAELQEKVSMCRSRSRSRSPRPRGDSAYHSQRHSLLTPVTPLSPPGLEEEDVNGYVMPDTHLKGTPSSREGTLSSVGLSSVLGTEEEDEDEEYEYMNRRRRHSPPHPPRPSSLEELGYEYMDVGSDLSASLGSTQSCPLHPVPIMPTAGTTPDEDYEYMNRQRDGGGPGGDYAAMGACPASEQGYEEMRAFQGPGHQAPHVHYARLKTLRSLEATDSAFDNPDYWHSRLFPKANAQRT

Take NRG1b (from UniProt Q02297): the pKd is 10.00.
